From PMC5057122, “Arabidopsis aldehyde dehydrogenase 10 family members confer salt tolerance through putrescine-derived 4-aminobutyrate (GABA) production” (Scientific Reports, 2016) come the findings set out here.

Data set [1] concerns the target T1, AtALDH10A8 (Arabidopsis thaliana, UniProt Q9S795).
T1 construct: gene ALDH10A8
T1 sequence (Q9S795 1-501): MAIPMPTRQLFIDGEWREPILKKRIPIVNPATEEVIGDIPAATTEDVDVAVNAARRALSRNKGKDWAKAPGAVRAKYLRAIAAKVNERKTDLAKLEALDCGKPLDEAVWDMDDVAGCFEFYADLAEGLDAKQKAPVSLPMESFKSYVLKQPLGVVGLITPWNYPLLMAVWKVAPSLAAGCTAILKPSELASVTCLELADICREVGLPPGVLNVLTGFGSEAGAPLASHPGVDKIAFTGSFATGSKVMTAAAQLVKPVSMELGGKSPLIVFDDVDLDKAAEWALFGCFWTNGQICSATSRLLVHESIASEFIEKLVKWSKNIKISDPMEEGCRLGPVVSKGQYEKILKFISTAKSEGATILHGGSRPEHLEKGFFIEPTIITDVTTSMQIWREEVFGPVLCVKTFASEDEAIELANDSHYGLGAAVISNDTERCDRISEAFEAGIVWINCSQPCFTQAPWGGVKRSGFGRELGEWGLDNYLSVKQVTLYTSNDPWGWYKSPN
Description: NADH formation at […] nm, substrate-inhibition Michaelis-Menten fit. In kind it is biochemical. The settings on record: substrate inhibition (partial); 100 μM NAD+, pH 8.5, room temperature; apparent.

The target in data set [2] is T2, AtALDH10A9 (Arabidopsis thaliana, UniProt Q9STS1).
T2 construct: gene ALDH10A9
T2 sequence (Q9STS1 1-503): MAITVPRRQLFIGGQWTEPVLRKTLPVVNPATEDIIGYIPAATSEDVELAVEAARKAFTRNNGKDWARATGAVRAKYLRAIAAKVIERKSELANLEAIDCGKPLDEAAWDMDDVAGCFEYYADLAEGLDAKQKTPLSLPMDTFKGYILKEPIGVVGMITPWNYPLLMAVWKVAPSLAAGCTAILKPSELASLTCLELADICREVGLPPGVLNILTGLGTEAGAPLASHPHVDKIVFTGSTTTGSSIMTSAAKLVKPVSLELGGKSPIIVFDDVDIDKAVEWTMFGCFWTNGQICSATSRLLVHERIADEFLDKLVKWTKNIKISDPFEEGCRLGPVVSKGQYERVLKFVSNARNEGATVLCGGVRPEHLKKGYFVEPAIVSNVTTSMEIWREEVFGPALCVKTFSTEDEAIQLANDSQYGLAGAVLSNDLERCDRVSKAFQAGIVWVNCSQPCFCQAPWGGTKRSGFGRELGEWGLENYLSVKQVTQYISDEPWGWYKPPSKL
The data set is described as above. It counts as biochemical. The settings on record: 500 μM NAD+, pH 9.5, room temperature, apparent.

Substrate in data set [3]: NCCCC=O
Description: purified protein. The settings on record: apparent. In kind it is biochemical, Arabidopsis thaliana.

Substrate in data set [4]: NC(=O)c1ccc[n+]([C@@H]2O[C@H](COP(=O)(O)OP(=O)(O)OC[C@H]3O[C@@H](n4cnc5c(N)ncnc54)[C@H](O)[C@@H]3O)[C@@H](O)[C@H]2O)c1
As to the kind of experiment: purified protein. In kind it is biochemical, Arabidopsis thaliana. Conditions: apparent, varied: cofactor.

Substrate in data set [5]: NCCC=O
As to the kind of experiment: purified protein. In kind it is biochemical, Arabidopsis thaliana. The settings on record: apparent.

The mark [6] stands for this setting: 100 μM NAD+, pH 8.5, room temperature.
Setting [7] is: co-substrate 7 μM APAL (subsaturating), pH 8.5, room temperature.
Setting [8] is: 500 μM NAD+, pH 9.5, room temperature.
The mark [9] stands for this setting: co-substrate 30 μM APAL (subsaturating), pH 9.5, room temperature.

Broadly, the Km is the substrate concentration at which the rate is half of its maximum. One may read the kcat/Km as the second-order rate constant that governs catalysis at low substrate concentration.

Consider `NCCCC=O` [ABAL], for which the “AtALDH10A8 / Kis” value in data set [1] turned out to be 55.7 ± 26.0 µM. In addition, the “AtALDH10A9 / Kis” value in data set [2] came to 2600 ± 750 µM.

Take `NCCC=O` [APAL]: the “AtALDH10A8 / Kis” value in data set [1] was 5.5 ± 0.3 µM. Also, in data set [2], the “AtALDH10A9 / Kis” value turned out to be 19000 ± 5800 µM.

B1: AtALDH10A8 (Arabidopsis thaliana) (protein)
chain: T1 sequence (Q9S795 1-501)
For B1, the Km in data set [3] (setting [6]) came to 25.1 ± 2.5 µM; in data set [4] (setting [7]) it was 13.2 ± 1.5 µM; in data set [5] (setting [6]), 14.4 ± 2.7 µM. The kcat/Km in data set [3] (setting [6]) worked out at 60000 M⁻¹ s⁻¹; in data set [4] (setting [7]), 260000 M⁻¹ s⁻¹; in data set [5] (setting [6]) it was 1.03e+06 M⁻¹ s⁻¹.

B2: AtALDH10A9 (Arabidopsis thaliana) (protein)
chain: T2 sequence (Q9STS1 1-503)
As to B2, the Michaelis-Menten constant (Km) was determined as 460 ± 65 µM in data set [3] (setting [8]), 86 ± 16 µM in data set [4] (setting [9]) and 17.3 ± 4.1 µM in data set [5] (setting [8]). In addition, the kcat/Km was determined as 20000 M⁻¹ s⁻¹ in data set [3] (setting [8]), 150000 M⁻¹ s⁻¹ in data set [4] (setting [9]) and 820000 M⁻¹ s⁻¹ in data set [5] (setting [8]).
